Data on 1 molecule can be found in patent US20250034601A1, “HETERODIMERIC BENZALDEHYDE SYNTHASE, METHODS OF PRODUCING, AND USES THEREOF” (Purdue Research Foundation, priority 2021, published 2025).

Test [1] can be described thus: Substrate specificity of purified BS with benzoyl-CoA and hydroxycinnamoyl-CoA analogs (GC-MS). Type of test: biochemical. Particulars: 1:1 ratio between α and β subunits, NADPH; cinnamoyl-, para-coumaroyl-, caffeoyl-, feruloyl-, sinapoyl-CoA versus benzoyl-CoA. From the text: The response of internal standard in each run was set as 100%.
To analyze substrate specificity of PhBS, CoA esters were enzymatically synthesized from cinnamic acid, para-coumaric acid, caffeic acid, ferulic acid and sinapic acid using purified recombinant petunia 4-coumarate:CoA ligase (Ph4CL1) purified using the protocols described herein (FIG. 11B; triangle indicates the position of the Ph4CL1 protein). […] The experiment was repeated at least six times with similar results.
To test whether AtBS is involved in the biosynthesis of other aromatic aldehydes, hydroxycinnamoyl-CoA thioesters were incubated with purified AtBS enzyme, and the corresponding aldehyde formation was analyzed. Briefly, GC-MS analysis was performed of the products formed by AtBS from different hydroxycinnamoyl-CoA substrates. […] Shown in FIG. 22 are the combined EICs of mass units 106 (benzaldehyde), 128 (internal standard), 131 (cinnamaldehyde), and 178 (coniferaldehyde).

Test [2] is described as follows: Purified PhBS with short-chain fatty acyl-CoA substrates (GC-MS). The test is classed as biochemical. Particulars: 1 mM fatty acyl-CoA, 28° C., 1 hour. As to the method: Given the peroxisomal localization of PhBS, it was also analyzed if purified PhBS could be involved in metabolism of short-chain fatty acyl-CoA esters. […] All reactions were carried out at 28° C. for 1 hour.

A further test has as its system N. benthamiana leaves. Kind of test: Reconstitution of benzaldehyde biosynthetic pathway in N. benthamiana leaves, benzylalcohol formation. Conditions: 150 mM Phe feeding for 24 hours, after Viscozyme treatment; means ± SE, n=5. Type of test: in vivo, Nicotiana benthamiana. From the text:
In addition, the complete benzaldehyde β-oxidative biosynthetic pathway was reconstituted in N. benthamiana by expressing together with the PhBS four additional genes encoding phenylalanine ammonia lyase 1 (PhPAL1), PhCNL, PhCHD and PhKAT. Klempien et al. (2012), supra; Qualley et al., Completion of the core 0-oxidative pathway of benzoic acid biosynthesis in plants. Proceedings of the National Acad of Sciences of the U.S.A. 109: 16383-16388 (2012); Moerkercke et al., A plant thiolase involved in benzoic acid biosynthesis and volatile benzenoid production, The Plant J. 60: 292-302 (2009).
The coding sequences of PhPAL1, PhCNL, PhCHD, PhKAT, PhBSα (SEQ ID NO: 1) and PhBSβ (SEQ ID NO: 2) were PCR amplified with gene-specific primers (see Table 1 of FIG. 24) from petunia flower cDNAs and cloned into binary vector pCNHP using ClonExpress II One Step Cloning Kit (Vazyme Biotech Co., Piscataway, NJ). After sequence verification, plasmids were transformed into Agrobacterium tumefaciens strain GV3101. Single colonies for each construct were picked and cultured at 28° C. in 3 mL of LB medium supplied with 50 mg/L rifampicin, 50 mg/L gentamycin and 50 mg/L kanamycin to an OD600 of about 2.0. Bacterial cultures were pelleted, washed with a 10 mM MgCl2 solution containing 200 μM acetosyringone, and incubated in the same solution for additional 2 hours at room temperature. […]

B1: PhBS: heterodimeric Petunia hybrida benzaldehyde synthase of PhBSα (SEQ ID NO: 1) and PhBSβ (SEQ ID NO: 2) subunits, 1:1 ratio (protein, listed as Petunia hybrida)
alpha: MEKQTQARFLEPWRDLKGKVVMVTGASSGIGLDLCLDLAKAGCKIIAAARRVDRLKSLCNQINAAADDDDDNNRAVAVELDVSANGDAIEAAVKEAWGAFGRIDALVNNAGVRGTVHSPLELTEEECHNTFRTNLTGTWLVSKYVCKFMRDAKQGGSVINISSIAGLNRGQLPGGLAYVSSKGAVNMVTKVMALELGVDKIRVNSISPGLFKSEITQGLIQKEWLNNVAMRTIPLRTHGNSADPALTSVVRYLIHDSSEYVSGNLFIVDAGATLPGVPIFSSL
beta: MENSGKKVLLTSNGDDICNNIAYHLAQRGCQLVLMGNESQLKSVAEMIKQSLGGSAAVEVVGLDMEEDREAAFEEAVDKAWKIFGKLDALVNCYSYEGKMQDPLQLIEEEFKKIVKINFMAGWYLMKCISKKMRDDKSGGSIVFLTSIIGAERGIYQGAAAYGSCLGGIQQLVRLAAIELGKHQIRVNGISRGLHLQDEYPKAVGLERAEKMTKEAAPLNRWLDVKKDLASTVIYLISDDSRYMTGTSIFVDGAQSLVRPRMRSYM
Turning to B1, in test [1], the “substrate specificity (aldehyde formation from CoA esters)” value is reported as “strict substrate selectivity for benzoyl-CoA”. Further, in test [2], the “product formed from hexanoyl-CoA” value is recorded as “only trace amounts of hexanal were detected”. In addition, the “benzylalcohol produced in infiltrated leaves” value with N. benthamiana leaves was 327.9±14.3 nmol·g FW^−1.
